To fix the notation:
T1: 人B7-H3变体1(4Ig-B7-H3) on stable cells 293-h4Ig-B7-H3-copGFP (human, UniProt Q5ZPR3 29-534)
T1 construct: Full-length CDS cloned in pCDH-EF1-T2A-copGFP and expressed on stably transduced cells; residues left by T2A cleavage not described
T1 sequence: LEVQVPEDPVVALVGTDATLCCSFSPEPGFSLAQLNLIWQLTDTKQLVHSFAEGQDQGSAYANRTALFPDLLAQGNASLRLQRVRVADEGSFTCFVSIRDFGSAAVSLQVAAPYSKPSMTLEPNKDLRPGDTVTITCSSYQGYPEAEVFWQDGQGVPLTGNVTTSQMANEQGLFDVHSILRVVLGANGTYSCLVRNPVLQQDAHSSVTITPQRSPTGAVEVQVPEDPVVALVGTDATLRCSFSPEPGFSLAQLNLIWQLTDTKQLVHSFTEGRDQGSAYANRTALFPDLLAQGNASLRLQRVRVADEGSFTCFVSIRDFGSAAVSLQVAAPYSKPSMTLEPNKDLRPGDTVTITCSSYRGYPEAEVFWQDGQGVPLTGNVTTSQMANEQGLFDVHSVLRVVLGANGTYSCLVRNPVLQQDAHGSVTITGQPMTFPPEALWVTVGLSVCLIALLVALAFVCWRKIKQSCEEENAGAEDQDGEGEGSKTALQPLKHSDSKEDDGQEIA

T2: B7-H3 (4Ig-B7-H3) endogenously expressed on MDA-MB-231 cells (UniProt Q5ZPR3 29-534, limits assumed)
T2 construct: whole, on cells; also called 细胞表面的B7-H3抗原
T2 sequence (looked up): T1 sequence

B1: scFv-27B4-H3-L3 (scFv)
scFv: QVQLVQSGSELKKPGASVKVSCKASGYTFTTYWMNWVRQAPGQGLEWMGWIYPGDGGSTYAQGFTGRFVFSLDTSVSTAYLQICSLKAEDTAVYYCARGGNYISFPMYYWGQGTLVTVSSGGGGSGGGGSGGGGSGGGGASEIVMTQSPATLSVSPGERATLSCKASRGVSTALAWYQQKPGQAPRLLIYWASTRATGIPARFSGSGSGTEFTLTISSLQSEDFAVYYCQQHYDTPYTFGQGTKLEIK
notes: VH-linker-VL in phage display vector pXY, expressed in TG1, purified on a nickel column
B2: scFv-27B4-H1-L5 (scFv)
scFv: QVQLVQSGAEVKKPGASVKVSCKASGYTFTTYWMHWVRQAPGQGLEWMGIIYPGDGGSSYAQKFQGRVTMTRDTSTSTVYMELSSLRSEDTAVYYCARGGNYISFPMYYWGQGTLVTVSSGGGGSGGGGSGGGGSGGGGASDIVMTQTPLSLSVTPGQPASISCKASRGVSTALYWYLQKPGQPPQLLIYWASNRFSGVPDRFSGSGSGTDFTLKISRVEAEDVGVYYCQQHYDTPYTFGQGTKLEIK
notes: as for B1
B3: scFv-27B4-H2-L5 (scFv)
scFv: B2 scFv with A16S, M34I, H35S, I50G, S59N, M70I, R72A, T74E, V79A
notes: as for B1
B4: scFv-27B4-H1-L4 (scFv)
scFv: QVQLVQSGAEVKKPGASVKVSCKASGYTFTTYWMHWVRQAPGQGLEWMGIIYPGDGGSSYAQKFQGRVTMTRDTSTSTVYMELSSLRSEDTAVYYCARGGNYISFPMYYWGQGTLVTVSSGGGGSGGGGSGGGGSGGGGASEIVLTQSPDFQSVTPKEKVTITCKASRGVSTALHWYQQKPDQSPKLLIKWASQSFSGVPSRFSGSGSGTDFTLTINSLEAEDAATYYCQQHYDTPYTFGQGTKLEIK
notes: as for B1
B5: scFv-27B4-H2-L4 (scFv)
scFv: B4 scFv with A16S, M34I, H35S, I50G, S59N, M70I, R72A, T74E, V79A
notes: as for B1
B6: scFv-27B4-H4-L5 (scFv)
scFv: EVQLVQSGAEVKKPGESLKISCKASGYTFTTYWIGWVRQMPGKGLEWMGIIYPGDGGSRYSPSFQGQVTISADKSISTAYLQWSSLKASDTAMYYCARGGNYISFPMYYWGQGTLVTVSSGGGGSGGGGSGGGGSGGGGASDIVMTQTPLSLSVTPGQPASISCKASRGVSTALYWYLQKPGQPPQLLIYWASNRFSGVPDRFSGSGSGTDFTLKISRVEAEDVGVYYCQQHYDTPYTFGQGTKLEIK
notes: as for B1
B7: scFv-27B4-H4-L4 (scFv)
scFv: EVQLVQSGAEVKKPGESLKISCKASGYTFTTYWIGWVRQMPGKGLEWMGIIYPGDGGSRYSPSFQGQVTISADKSISTAYLQWSSLKASDTAMYYCARGGNYISFPMYYWGQGTLVTVSSGGGGSGGGGSGGGGSGGGGASEIVLTQSPDFQSVTPKEKVTITCKASRGVSTALHWYQQKPDQSPKLLIKWASQSFSGVPSRFSGSGSGTDFTLTINSLEAEDAATYYCQQHYDTPYTFGQGTKLEIK
notes: as for B1
B8: scFv-27B4-H4-L3 (scFv)
scFv: EVQLVQSGAEVKKPGESLKISCKASGYTFTTYWIGWVRQMPGKGLEWMGIIYPGDGGSRYSPSFQGQVTISADKSISTAYLQWSSLKASDTAMYYCARGGNYISFPMYYWGQGTLVTVSSGGGGSGGGGSGGGGSGGGGASEIVMTQSPATLSVSPGERATLSCKASRGVSTALAWYQQKPGQAPRLLIYWASTRATGIPARFSGSGSGTEFTLTISSLQSEDFAVYYCQQHYDTPYTFGQGTKLEIK
notes: Expressed from phage display vector pXY in TG1, purified on a nickel column
B9: scFv-27B4-H1-L1 (scFv)
scFv: QVQLVQSGAEVKKPGASVKVSCKASGYTFTTYWMHWVRQAPGQGLEWMGIIYPGDGGSSYAQKFQGRVTMTRDTSTSTVYMELSSLRSEDTAVYYCARGGNYISFPMYYWGQGTLVTVSSGGGGSGGGGSGGGGSGGGGASDIQMTQSPSSLSASMGDRVTITCKASRGVSTALNWYQQKPGKAPKLLIYWASSLQSGVPSRFSGSGSGTDFTLTISSLQPEDFATYYCQQHYDTPYTFGQGTKLEIK
notes: as for B1
B10: scFv-27B4-H1-L2 (scFv)
scFv: B9 scFv with D142V, Q144W, S151L, M156T, T163S, N175A, K186E, S194T, S218C, P221S
notes: as for B1
B11: scFv-27B4-H2-L1 (scFv)
scFv: B9 scFv with A16S, M34I, H35S, I50G, S59N, M70I, R72A, T74E, V79A
notes: as for B1
B12: scFv-27B4-H3-L5 (scFv)
scFv: QVQLVQSGSELKKPGASVKVSCKASGYTFTTYWMNWVRQAPGQGLEWMGWIYPGDGGSTYAQGFTGRFVFSLDTSVSTAYLQICSLKAEDTAVYYCARGGNYISFPMYYWGQGTLVTVSSGGGGSGGGGSGGGGSGGGGASDIVMTQTPLSLSVTPGQPASISCKASRGVSTALYWYLQKPGQPPQLLIYWASNRFSGVPDRFSGSGSGTDFTLKISRVEAEDVGVYYCQQHYDTPYTFGQGTKLEIK
notes: as for B1
B13: scFv-27B4-H2-L2 (scFv)
scFv: QVQLVQSGAEVKKPGSSVKVSCKASGYTFTTYWISWVRQAPGQGLEWMGGIYPGDGGSNYAQKFQGRVTITADESTSTAYMELSSLRSEDTAVYYCARGGNYISFPMYYWGQGTLVTVSSGGGGSGGGGSGGGGSGGGGASVIWMTQSPSLLSASTGDRVTISCKASRGVSTALAWYQQKPGKAPELLIYWASTLQSGVPSRFSGSGSGTDFTLTISCLQSEDFATYYCQQHYDTPYTFGQGTKLEIK
notes: as for B8
B14: scFv-27B4-H3-L4 (scFv)
scFv: QVQLVQSGSELKKPGASVKVSCKASGYTFTTYWMNWVRQAPGQGLEWMGWIYPGDGGSTYAQGFTGRFVFSLDTSVSTAYLQICSLKAEDTAVYYCARGGNYISFPMYYWGQGTLVTVSSGGGGSGGGGSGGGGSGGGGASEIVLTQSPDFQSVTPKEKVTITCKASRGVSTALHWYQQKPDQSPKLLIKWASQSFSGVPSRFSGSGSGTDFTLTINSLEAEDAATYYCQQHYDTPYTFGQGTKLEIK
notes: as for B1
B15: scFv-27B4-H1-L3 (scFv)
scFv: QVQLVQSGAEVKKPGASVKVSCKASGYTFTTYWMHWVRQAPGQGLEWMGIIYPGDGGSSYAQKFQGRVTMTRDTSTSTVYMELSSLRSEDTAVYYCARGGNYISFPMYYWGQGTLVTVSSGGGGSGGGGSGGGGSGGGGASEIVMTQSPATLSVSPGERATLSCKASRGVSTALAWYQQKPGQAPRLLIYWASTRATGIPARFSGSGSGTEFTLTISSLQSEDFAVYYCQQHYDTPYTFGQGTKLEIK
notes: as for B1
B16: scFv-27B4-H2-L3 (scFv)
scFv: B15 scFv with A16S, M34I, H35S, I50G, S59N, M70I, R72A, T74E, V79A
notes: as for B8
B17: scFv-27B4-H3-L1 (scFv)
scFv: QVQLVQSGSELKKPGASVKVSCKASGYTFTTYWMNWVRQAPGQGLEWMGWIYPGDGGSTYAQGFTGRFVFSLDTSVSTAYLQICSLKAEDTAVYYCARGGNYISFPMYYWGQGTLVTVSSGGGGSGGGGSGGGGSGGGGASDIQMTQSPSSLSASMGDRVTITCKASRGVSTALNWYQQKPGKAPKLLIYWASSLQSGVPSRFSGSGSGTDFTLTISSLQPEDFATYYCQQHYDTPYTFGQGTKLEIK
notes: as for B1
B18: scFv-27B4-H3-L2 (scFv)
scFv: B17 scFv with D142V, Q144W, S151L, M156T, T163S, N175A, K186E, S194T, S218C, P221S
notes: as for B1
B19: scFv-27B4-H4-L1 (scFv)
scFv: EVQLVQSGAEVKKPGESLKISCKASGYTFTTYWIGWVRQMPGKGLEWMGIIYPGDGGSRYSPSFQGQVTISADKSISTAYLQWSSLKASDTAMYYCARGGNYISFPMYYWGQGTLVTVSSGGGGSGGGGSGGGGSGGGGASDIQMTQSPSSLSASMGDRVTITCKASRGVSTALNWYQQKPGKAPKLLIYWASSLQSGVPSRFSGSGSGTDFTLTISSLQPEDFATYYCQQHYDTPYTFGQGTKLEIK
notes: as for B1
B20: scFv-27B4-H4-L2 (scFv)
scFv: B19 scFv with D142V, Q144W, S151L, M156T, T163S, N175A, K186E, S194T, S218C, P221S
notes: as for B8

Numbering of substitutions follows the chain as printed.

One assay deals with T1, 人B7-H3变体1(4Ig-B7-H3) on stable cells …. The experiment in a line: FACS, 293-h4Ig-B7-H3-copGFP stable cells. On the technique in general: Flow cytometry measures light scatter and fluorescence of single cells or particles in a stream.
As for B1, the binding result was “binds”.
With B2, the binding result was “binds”.
Same read-out and setting: under B3 stands “binds”.
Take B4: the binding result is listed as “binds”.
In the case of B5, the binding result is “binds”.
Same read-out and setting: under B6 stands “binds”; under B7, “binds”; under B8, “binds”.
With B9, the binding result is “binds”.
As for B10, the binding result is “binds”.
Same read-out and setting: with B11 the entry was “binds”; with B12, “binds”.
As to B13, the binding result was “binds”.
Take B14: the binding result is “binds”.
Same read-out and setting: with B15 the entry was “binds”; with B16, “binds”.
Same read-out and setting: under B17 stands “binds”; under B18, “binds”.
Still for that read-out and setting: with B19 the entry was “binds”.
On to B20, for which the binding result is “binds”.

For the next assay, the target named is T2, B7-H3 (4Ig-B7-H3) endogenously …. The experiment in a line: FACS, MDA-MB-231 cells.
On to B1, for which the binding result is “binds”.
On the same count and under the same terms, under B2 stands “binds”.
As for B3, the binding result is recorded as “binds”.
Same read-out and setting: under B4 stands “binds”.
B5: the binding result was “binds”.
Turning to B6, the binding result is “binds”.
On the same count and under the same terms, with B7 the entry was “binds”.
B8: the binding result is listed as “binds”.
The same measure, in the same setting: with B9 the entry was “binds”; with B10, “binds”; with B11, “binds”.
As for B12, the binding result is listed as “binds”.
Turning to B13, the binding result is recorded as “binds”.
Same read-out and setting: under B14 stands “binds”; under B15, “binds”.
Still for that read-out and setting: with B16 the entry was “binds”.
The same measure, in the same setting: with B17 the entry was “binds”; with B18, “binds”.
B19: the binding result is listed as “binds”.
Same read-out and setting: with B20 the entry was “binds”.

For the origin of these results see CN113683697A (SHANGHAI XIANGYAO BIOTECHNOLOGY CO LTD, dated 2021).
